By pKd is commonly meant −log10 of the Kd, conventionally taken in molar units.

The record followed here is article PMC6065011.

Assay [1] addresses Siglec-10-Fc (soluble, recombinant) (UniProt Q96LC7). The assay is described as follows: SPR. (In general: Surface plasmon resonance follows binding to a sensor surface in real time, without labels.)
Assay [2] concerns the target HMGB1, disulfide form (recombinant) (UniProt P09429). The assay is described as follows: SPR.

pKd: −log10 of the molar value.

Chain of UniProt P09429 (P09429 whole entry): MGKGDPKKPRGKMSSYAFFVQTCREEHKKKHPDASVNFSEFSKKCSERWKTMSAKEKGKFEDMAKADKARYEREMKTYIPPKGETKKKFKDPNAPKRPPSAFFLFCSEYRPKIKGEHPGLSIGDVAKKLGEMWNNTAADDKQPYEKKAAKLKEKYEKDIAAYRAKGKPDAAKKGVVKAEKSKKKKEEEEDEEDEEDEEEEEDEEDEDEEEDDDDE
Chain of UniProt Q96LC7 (Q96LC7 17-550): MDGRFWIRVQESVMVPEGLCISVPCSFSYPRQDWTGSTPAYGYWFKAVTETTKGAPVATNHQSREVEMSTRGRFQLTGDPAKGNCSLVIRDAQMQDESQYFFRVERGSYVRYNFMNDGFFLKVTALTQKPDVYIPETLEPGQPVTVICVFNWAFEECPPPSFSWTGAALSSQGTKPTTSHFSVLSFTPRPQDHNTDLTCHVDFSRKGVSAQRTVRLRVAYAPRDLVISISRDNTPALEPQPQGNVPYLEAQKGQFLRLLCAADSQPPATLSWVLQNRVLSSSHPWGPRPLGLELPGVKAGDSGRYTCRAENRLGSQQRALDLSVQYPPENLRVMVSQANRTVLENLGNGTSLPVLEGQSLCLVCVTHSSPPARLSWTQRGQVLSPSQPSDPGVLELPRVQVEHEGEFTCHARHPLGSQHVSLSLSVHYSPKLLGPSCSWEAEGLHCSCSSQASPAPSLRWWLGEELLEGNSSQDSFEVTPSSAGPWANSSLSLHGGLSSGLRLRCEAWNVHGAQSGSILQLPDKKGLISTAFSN

In the case of “CD52-Fc (soluble CD52, recombinant) (from UniProt P31358 25-36) (Fc fusion)”, the negative-log Kd (pKd) is 6.25 in assay [1] and 6.89 in assay [2].
